Laboratory results published in patent US20150368311A1 (Sanofi, published 2015).
Non-standard residues stand in square brackets, D forms with d. No end group written: not given here. Ala(4-thiazolyl) = N[C@@H](Cc1cscn1)C(=O)O; 1Nal = N[C@@H](Cc1cccc2ccccc12)C(=O)O; Chg = N[C@H](C(=O)O)C1CCCCC1; Phg = N[C@H](C(=O)O)c1ccccc1; Tle = CC(C)(C)[C@H](N)C(=O)O; Nle = CCCC[C@H](N)C(=O)O

Tests used:
Test in all cases: cell-based or functional assay
[1] = target: T1, human GLP-1 receptor (human, UniProt P43220 24-463)
[2] = target: T2, human glucagon receptor (human, UniProt P47871 26-477)
[3] = target: T1, human GLP-1 receptor; remark: listed apart in the source
[4] = target: T2, human glucagon receptor; remark: listed apart in the source

T2 sequence (P47871 26-477): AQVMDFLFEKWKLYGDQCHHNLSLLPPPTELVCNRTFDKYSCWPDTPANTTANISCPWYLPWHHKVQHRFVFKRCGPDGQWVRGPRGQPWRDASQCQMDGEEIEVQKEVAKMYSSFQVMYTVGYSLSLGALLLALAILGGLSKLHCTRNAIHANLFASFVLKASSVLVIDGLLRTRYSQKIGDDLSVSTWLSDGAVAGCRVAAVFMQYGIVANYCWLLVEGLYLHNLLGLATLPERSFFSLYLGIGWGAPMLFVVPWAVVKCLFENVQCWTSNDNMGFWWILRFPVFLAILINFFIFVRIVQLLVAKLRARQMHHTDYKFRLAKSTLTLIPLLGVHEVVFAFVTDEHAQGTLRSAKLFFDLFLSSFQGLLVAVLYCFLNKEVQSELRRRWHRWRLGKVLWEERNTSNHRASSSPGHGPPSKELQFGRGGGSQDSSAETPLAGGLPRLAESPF

Row | Binder | EC50 hGLP-1 R [pM], cAMP formation [1] [pM] | EC50 hGLUC R [pM], cAMP formation [2] [pM] | EC50 hGLP-1R, cAMP formation [3] [nM] | EC50 hGlucagon-R, cAMP formation [4] [nM]
1 | [Ala(4-thiazolyl)]SQGTFTSD[Tle]SKQ[Nle]ESRRAQEFIEWLLATGPESGAPPPS-OH (N-terminus assumed; SMILES CCCC[C@H](NC(=O)[C@H](CCC(N)=O)NC(=O)[C@H](CCCCN)NC(=O)[C@H](CO)NC(=O)[C@@H](NC(=O)[C@H](CC(=O)O)NC(=O)[C@H](CO)NC(=O)[C@@H](NC(=O)[C@H](Cc1ccccc1)NC(=O)[C@@H](NC(=O)CNC(=O)[C@H](CCC(N)=O)NC(=O)[C@H](CO)NC(=O)[C@@H](N)Cc1cscn1)[C@@H](C)O)[C@@H](C)O)C(C)(C)C)C(=O)N[C@@H](CCC(=O)O)C(=O)N[C@@H](CO)C(=O)N[C@@H](CCCNC(=N)N)C(=O)N[C@@H](CCCNC(=N)N)C(=O)N[C@@H](C)C(=O)N[C@@H](CCC(N)=O)C(=O)N[C@@H](CCC(=O)O)C(=O)N[C@@H](Cc1ccccc1)C(=O)N[C@H](C(=O)N[C@@H](CCC(=O)O)C(=O)N[C@@H](Cc1c[nH]c2ccccc12)C(=O)N[C@@H](CC(C)C)C(=O)N[C@@H](CC(C)C)C(=O)N[C@@H](C)C(=O)N[C@H](C(=O)NCC(=O)N1CCC[C@H]1C(=O)N[C@@H](CCC(=O)O)C(=O)N[C@@H](CO)C(=O)NCC(=O)N[C@@H](C)C(=O)N1CCC[C@H]1C(=O)N1CCC[C@H]1C(=O)N1CCC[C@H]1C(=O)N[C@@H](CO)C(=O)O)[C@@H](C)O)[C@@H](C)CC) [SEQ ID NO: 25] | 23100 | 0.8 |  | 
2 | HSQGTFTSD[Phg]SKQLESRRAQEFIEWLLATGPESGAPPPS-OH (N-terminus assumed; SMILES CC[C@H](C)[C@H](NC(=O)[C@H](Cc1ccccc1)NC(=O)[C@H](CCC(=O)O)NC(=O)[C@H](CCC(N)=O)NC(=O)[C@H](C)NC(=O)[C@H](CCCNC(=N)N)NC(=O)[C@H](CCCNC(=N)N)NC(=O)[C@H](CO)NC(=O)[C@H](CCC(=O)O)NC(=O)[C@H](CC(C)C)NC(=O)[C@H](CCC(N)=O)NC(=O)[C@H](CCCCN)NC(=O)[C@H](CO)NC(=O)[C@@H](NC(=O)[C@H](CC(=O)O)NC(=O)[C@H](CO)NC(=O)[C@@H](NC(=O)[C@H](Cc1ccccc1)NC(=O)[C@@H](NC(=O)CNC(=O)[C@H](CCC(N)=O)NC(=O)[C@H](CO)NC(=O)[C@@H](N)Cc1c[nH]cn1)[C@@H](C)O)[C@@H](C)O)c1ccccc1)C(=O)N[C@@H](CCC(=O)O)C(=O)N[C@@H](Cc1c[nH]c2ccccc12)C(=O)N[C@@H](CC(C)C)C(=O)N[C@@H](CC(C)C)C(=O)N[C@@H](C)C(=O)N[C@H](C(=O)NCC(=O)N1CCC[C@H]1C(=O)N[C@@H](CCC(=O)O)C(=O)N[C@@H](CO)C(=O)NCC(=O)N[C@@H](C)C(=O)N1CCC[C@H]1C(=O)N1CCC[C@H]1C(=O)N1CCC[C@H]1C(=O)N[C@@H](CO)C(=O)O)[C@@H](C)O) [SEQ ID NO: 32] |  |  | 18.7 | 0.012
3 | HSQGTFTSDISKQLESRRAQEFIEWLLATGPESGAPPPS-OH [SEQ ID NO: 31] |  |  | 0.941 | 0.0041
4 | HSQGTFTSDLSKQ[Nle]ESRRAQDFIEWLLATGPESGAPPPS-OH (N-terminus assumed; SMILES CCCC[C@H](NC(=O)[C@H](CCC(N)=O)NC(=O)[C@H](CCCCN)NC(=O)[C@H](CO)NC(=O)[C@H](CC(C)C)NC(=O)[C@H](CC(=O)O)NC(=O)[C@H](CO)NC(=O)[C@@H](NC(=O)[C@H](Cc1ccccc1)NC(=O)[C@@H](NC(=O)CNC(=O)[C@H](CCC(N)=O)NC(=O)[C@H](CO)NC(=O)[C@@H](N)Cc1c[nH]cn1)[C@@H](C)O)[C@@H](C)O)C(=O)N[C@@H](CCC(=O)O)C(=O)N[C@@H](CO)C(=O)N[C@@H](CCCNC(=N)N)C(=O)N[C@@H](CCCNC(=N)N)C(=O)N[C@@H](C)C(=O)N[C@@H](CCC(N)=O)C(=O)N[C@@H](CC(=O)O)C(=O)N[C@@H](Cc1ccccc1)C(=O)N[C@H](C(=O)N[C@@H](CCC(=O)O)C(=O)N[C@@H](Cc1c[nH]c2ccccc12)C(=O)N[C@@H](CC(C)C)C(=O)N[C@@H](CC(C)C)C(=O)N[C@@H](C)C(=O)N[C@H](C(=O)NCC(=O)N1CCC[C@H]1C(=O)N[C@@H](CCC(=O)O)C(=O)N[C@@H](CO)C(=O)NCC(=O)N[C@@H](C)C(=O)N1CCC[C@H]1C(=O)N1CCC[C@H]1C(=O)N1CCC[C@H]1C(=O)N[C@@H](CO)C(=O)O)[C@@H](C)O)[C@@H](C)CC) [SEQ ID NO: 26] |  |  | 1.24 | 0.0094
5 | [Ala(4-thiazolyl)]SQGTFTSD[1Nal]SKQLESRRAQDFIEWLLATGPESGAPPPS-OH (N-terminus assumed; SMILES CC[C@H](C)[C@H](NC(=O)[C@H](Cc1ccccc1)NC(=O)[C@H](CC(=O)O)NC(=O)[C@H](CCC(N)=O)NC(=O)[C@H](C)NC(=O)[C@H](CCCNC(=N)N)NC(=O)[C@H](CCCNC(=N)N)NC(=O)[C@H](CO)NC(=O)[C@H](CCC(=O)O)NC(=O)[C@H](CC(C)C)NC(=O)[C@H](CCC(N)=O)NC(=O)[C@H](CCCCN)NC(=O)[C@H](CO)NC(=O)[C@H](Cc1cccc2ccccc12)NC(=O)[C@H](CC(=O)O)NC(=O)[C@H](CO)NC(=O)[C@@H](NC(=O)[C@H](Cc1ccccc1)NC(=O)[C@@H](NC(=O)CNC(=O)[C@H](CCC(N)=O)NC(=O)[C@H](CO)NC(=O)[C@@H](N)Cc1cscn1)[C@@H](C)O)[C@@H](C)O)C(=O)N[C@@H](CCC(=O)O)C(=O)N[C@@H](Cc1c[nH]c2ccccc12)C(=O)N[C@@H](CC(C)C)C(=O)N[C@@H](CC(C)C)C(=O)N[C@@H](C)C(=O)N[C@H](C(=O)NCC(=O)N1CCC[C@H]1C(=O)N[C@@H](CCC(=O)O)C(=O)N[C@@H](CO)C(=O)NCC(=O)N[C@@H](C)C(=O)N1CCC[C@H]1C(=O)N1CCC[C@H]1C(=O)N1CCC[C@H]1C(=O)N[C@@H](CO)C(=O)O)[C@@H](C)O) [SEQ ID NO: 22] | 8570 | 1 |  | 
6 | HSQGTFTSDYSKQLESRRAQEFIEWLLAGGPESGAPPPS-OH [SEQ ID NO: 28] |  |  | 0.0524 | 0.001
7 | HSQGTFTSDVSKQLESRRAQEFIEWLLATGPESGAPPPS-OH [SEQ ID NO: 30] |  |  | 1.18 | 0.0065
8 | HSQGTFTSDYSKQLESRRAQEFIEWLLATGPESGAPPPS-OH [SEQ ID NO: 29] |  |  | 0.145 | 0.0009
9 | [Ala(4-thiazolyl)]SQGTFTSD[Chg]SKQ[Nle]ESRRAQEFIEWLLATGPESGAPPPS-OH (N-terminus assumed; SMILES CCCC[C@H](NC(=O)[C@H](CCC(N)=O)NC(=O)[C@H](CCCCN)NC(=O)[C@H](CO)NC(=O)[C@@H](NC(=O)[C@H](CC(=O)O)NC(=O)[C@H](CO)NC(=O)[C@@H](NC(=O)[C@H](Cc1ccccc1)NC(=O)[C@@H](NC(=O)CNC(=O)[C@H](CCC(N)=O)NC(=O)[C@H](CO)NC(=O)[C@@H](N)Cc1cscn1)[C@@H](C)O)[C@@H](C)O)C1CCCCC1)C(=O)N[C@@H](CCC(=O)O)C(=O)N[C@@H](CO)C(=O)N[C@@H](CCCNC(=N)N)C(=O)N[C@@H](CCCNC(=N)N)C(=O)N[C@@H](C)C(=O)N[C@@H](CCC(N)=O)C(=O)N[C@@H](CCC(=O)O)C(=O)N[C@@H](Cc1ccccc1)C(=O)N[C@H](C(=O)N[C@@H](CCC(=O)O)C(=O)N[C@@H](Cc1c[nH]c2ccccc12)C(=O)N[C@@H](CC(C)C)C(=O)N[C@@H](CC(C)C)C(=O)N[C@@H](C)C(=O)N[C@H](C(=O)NCC(=O)N1CCC[C@H]1C(=O)N[C@@H](CCC(=O)O)C(=O)N[C@@H](CO)C(=O)NCC(=O)N[C@@H](C)C(=O)N1CCC[C@H]1C(=O)N1CCC[C@H]1C(=O)N1CCC[C@H]1C(=O)N[C@@H](CO)C(=O)O)[C@@H](C)O)[C@@H](C)CC) [SEQ ID NO: 24] | 8310 | 0.7 |  | 
10 | HSQGTFTSDLSKQLESRRAQEFIEWLLAGGPESGAPPPS-OH [SEQ ID NO: 27] |  |  | 0.0808 | 0.0013
11 | [Ala(4-thiazolyl)]SQGTFTSD[Chg]SKQLESRRAQDFIEWLLATGPESGAPPPS-OH (N-terminus assumed; SMILES CC[C@H](C)[C@H](NC(=O)[C@H](Cc1ccccc1)NC(=O)[C@H](CC(=O)O)NC(=O)[C@H](CCC(N)=O)NC(=O)[C@H](C)NC(=O)[C@H](CCCNC(=N)N)NC(=O)[C@H](CCCNC(=N)N)NC(=O)[C@H](CO)NC(=O)[C@H](CCC(=O)O)NC(=O)[C@H](CC(C)C)NC(=O)[C@H](CCC(N)=O)NC(=O)[C@H](CCCCN)NC(=O)[C@H](CO)NC(=O)[C@@H](NC(=O)[C@H](CC(=O)O)NC(=O)[C@H](CO)NC(=O)[C@@H](NC(=O)[C@H](Cc1ccccc1)NC(=O)[C@@H](NC(=O)CNC(=O)[C@H](CCC(N)=O)NC(=O)[C@H](CO)NC(=O)[C@@H](N)Cc1cscn1)[C@@H](C)O)[C@@H](C)O)C1CCCCC1)C(=O)N[C@@H](CCC(=O)O)C(=O)N[C@@H](Cc1c[nH]c2ccccc12)C(=O)N[C@@H](CC(C)C)C(=O)N[C@@H](CC(C)C)C(=O)N[C@@H](C)C(=O)N[C@H](C(=O)NCC(=O)N1CCC[C@H]1C(=O)N[C@@H](CCC(=O)O)C(=O)N[C@@H](CO)C(=O)NCC(=O)N[C@@H](C)C(=O)N1CCC[C@H]1C(=O)N1CCC[C@H]1C(=O)N1CCC[C@H]1C(=O)N[C@@H](CO)C(=O)O)[C@@H](C)O) [SEQ ID NO: 23] | 50700 | 3.5 |  | 
